Key:
[1] = molecular target: carboxymethyl lysine conjugated to keyhole limpet hemocyanin (CML-KLH); assay: direct ELISA, CML-KLH coat 1 ug/mL, antibody at 50 ug/mL
[2] = molecular target: carboxymethyl lysine conjugated to keyhole limpet hemocyanin (CML-KLH); assay: direct ELISA, CML-KLH coat 1 ug/mL, antibody at 0.07 ug/mL
[3] = molecular target: carboxymethyl lysine conjugated to keyhole limpet hemocyanin (CML-KLH); assay: direct ELISA, CML-KLH coat 1 ug/mL, antibody at 0.21 ug/mL
[4] = molecular target: carboxymethyl lysine conjugated to keyhole limpet hemocyanin (CML-KLH); assay: direct ELISA, CML-KLH coat 1 ug/mL, antibody at 0.62 ug/mL
[5] = molecular target: carboxymethyl lysine conjugated to keyhole limpet hemocyanin (CML-KLH); assay: direct ELISA, CML-KLH coat 1 ug/mL, antibody at 1.85 ug/mL
[6] = molecular target: carboxymethyl lysine conjugated to keyhole limpet hemocyanin (CML-KLH); assay: direct ELISA, CML-KLH coat 1 ug/mL, antibody at 5.56 ug/mL
[7] = molecular target: carboxymethyl lysine conjugated to keyhole limpet hemocyanin (CML-KLH); assay: direct ELISA, CML-KLH coat 1 ug/mL, antibody at 16.67 ug/mL
[8] = molecular target: carboxymethyl lysine conjugated to keyhole limpet hemocyanin (CML-KLH); assay: direct ELISA, CML-KLH coat 1 ug/mL, antibody at 0 ug/mL (buffer control, background)
[9] = tested on: transgenic mouse model p16-3MR; conditions: cited from earlier work; for Induction of senescence in vivo: keratinocytes, endothelial cells, fibroblasts and smooth muscle cells; for p16INK4a expression in the skin: mice administered the agent
[10] = tested on: human histiocytic lymphoma U937 cell line; assay: Senescence-associated β-galactosidase assay by fluorescent microscope imaging; assay type: cell-based
Experimental: Cells from the human histiocytic lymphoma U937 cell line were treated with doxorubicin, a chemotherapeutic agent, to induce senescence. Cells were treated with 0 μM, 0.01 μM, 0.1 μM or 1 μM doxorubicin for 3 days, or were treated with 0 μM, 0.1 μM or 1 μM doxorubicin for 6 days. Senescence was measured with a senescence-associated β-galactosidase assay by fluorescent microscope imaging.

[11] = tested on: murine embryonic fibroblasts, murine dermal fibroblasts and human dermal fibroblasts; conditions: fibroblasts treated in vitro; cited from earlier work
[12] = tested on: transgenic mouse model p16-3MR; conditions: cited from earlier work
[13] = tested on: transgenic mouse model p16-3MR; conditions: cited from earlier work; for Effect of elimination of senescent cells on running activity and strength: after doxorubicin or paclitaxel
[14] = tested on: breast cancer cells (MMTV-PyMT); conditions: cited from earlier work
CML-KLH = assay: Direct binding ELISA, CML-KLH coat; conditions: for OD450 absorbance: CML-KLH Coat
From the text: (§1) The binding of the murine (parental) and chimeric anti-AGE antibodies described in Example 3 was investigated by a direct binding ELISA. An anti-carboxymethyl lysine (CML) antibody (R&D Systems, MAB3247) was used as a control. CML was conjugated to KLH (CML-KLH) and both CML and CML-KLH were coated overnight onto an ELISA plate. HRP-goat anti-mouse Fc was used to detect the control and murine (parental) anti-AGE antibodies. HRP-goat anti-human Fc was used to detect the chimeric anti-AGE antibody.
(§2) The antigens were diluted to 1 μg/mL in 1× phosphate buffer at pH 6.5. A 96-well microtiter ELISA plate was coated with 100 μL/well of the diluted antigen and let sit at 4° C. overnight. The plate was blocked with 1×PBS, 2.5% BSA and allowed to sit for 1-2 hours the next morning at room temperature. The antibody samples were prepared in serial dilutions with 1×PBS, 1% BSA with the starting concentration of 50 μg/mL. Secondary antibodies were diluted 1:5,000. 100 μL of the antibody dilutions was applied to each well. The plate was incubated at room temperature for 0.5-1 hour on a microplate shaker. The plate was washed 3 times with 1×PBS. 100 μL/well diluted HRP-conjugated goat anti-human Fc secondary antibody was applied to the wells. The plate was incubated for 1 hour on a microplate shaker. The plate was then washed 3 times with 1×PBS. 100 μL HRP substrate TMB was added to each well to develop the plate. After 3-5 minutes elapsed, the reaction was terminated by adding 100 μL of 1N HCl. A second direct binding ELISA was performed with only CML coating. The absorbance at OD450 was read using a microplate reader.
(§3) The OD450 absorbance raw data for the CML and CML-KLH ELISA is shown in the plate map below. 48 of the 96 wells in the well plate were used. Blank wells in the plate map indicate unused wells.

[15] = Direct binding ELISA, CML coat
From the text: as §1, §2, §3
The OD450 absorbance raw data for the CML-only ELISA is shown in the plate map below. 24 of the 96 wells in the well plate were used. Blank wells in the plate map indicate unused wells.

For “carboxymethyl lysine MAb (Clone 318003), R&D Systems, catalog no. MAB3247 (antibody)”, the OD450 [1] was 0.462 OD450, the OD450 [2] was 0.086 OD450 and the OD450 [3] was 0.075 OD450. The OD450 [4] was 0.083 OD450, the OD450 [5] was 0.092 OD450 and the OD450 [6] was 0.165 OD450. For the same molecule, the OD450 [7] was 0.312 OD450 and the OD450 [8] was 0.09 OD450.

For `Cn1nnc2c(C(N)=O)ncn2c1=O` [temozolomide], the “Induction of senescence in vivo” value [9] is listed as “induced senescence in various cell types” and the “p16INK4a expression in the skin” value [9] is listed as “elevated p^16INK4a expression in the skin”.

For `COc1cccc2c1C(=O)c1c(O)c3c(c(O)c1C2=O)C[C@@](O)(C(=O)CO)C[C@@H]3O[C@H]1C[C@H](N)[C@H](O)[C@H](C)O1` [doxorubicin], the “Cells that fluoresce (senescence-associated β-galactosidase)” value (“Cells that fluoresce” below) ([10]; 0.01 μM for 3 days) was “about 85%”, the “Cells that fluoresce” value ([10]; 0.1 μM for 3 days) was “about 65%” and the “Cells that fluoresce” value ([10]; 0.1 μM for 6 days) was “about 85%”. For the same molecule, the Cell death ([10]; 1 μM) was “significant cell death”, the “Cells that fluoresce” value ([10]; 1 μM for 3 days) was “about 60%” and the “Cells that fluoresce” value ([10]; 1 μM for 6 days) was “about 85%”. For the same molecule, the “Concentration of peak senescence induction” value ([10]; treatment for 3-6 days) was 0.1 µM, the “Induction of cellular senescence (SA-β-gal, DNA synthesis, p16INK4a mRNA, SASP, p21, LaminB1)” value [11] was “symptoms of cellular senescence” and the “Induction of senescence in vivo” value [9] was “induced senescence in various cell types”. The “Effect on SASP factor genes, HPC function and cardiac function” value ([12]; genetically engineered mice) was “increased expression of SASP factor genes associated with inflammation, reduction of hematopoietic progenitor cell (HPC) function and reduction in cardiac function” and the “Chemotherapy-induced fatigue and strength” value ([13]; running activity) was “chemotherapy-induced fatigue, as measured by running activity, and decline in strength”.

For `N.N.[Cl][Pt][Cl]` [cisplatin], the “Induction of senescence in vivo” value [9] is listed as “induced senescence in various cell types” and the “p16INK4a expression in the skin” value [9] is listed as “elevated p^16INK4a expression in the skin”.

In the case of `CC(=O)O[C@H]1C(=O)[C@@]2(C)[C@H]([C@H](OC(=O)c3ccccc3)[C@]3(O)C[C@H](OC(=O)[C@H](O)[C@@H](NC(=O)c4ccccc4)c4ccccc4)C(C)=C1C3(C)C)[C@]1(OC(C)=O)CO[C@@H]1C[C@@H]2O` [paclitaxel], the “Induction of cellular senescence (SA-β-gal, DNA synthesis, p16INK4a mRNA, SASP, p21, LaminB1)” value [11] is given as “symptoms of cellular senescence”.

For `CC1(C)CCC(c2ccc(Cl)cc2)=C(CN2CCN(c3ccc(C(=O)NS(=O)(=O)c4ccc(N[C@H](CCN5CCOCC5)CSc5ccccc5)c(S(=O)(=O)C(F)(F)F)c4)cc3)CC2)C1` [ABT-263], the “Effect of elimination of senescent cells on running activity and strength” value [13] is listed as “nearly reversed the decline in running activity and improved the loss of strength”.

For `Nc1nc(O)c2ncn(COC(CO)CO)c2n1` [GCV, ganciclovir], the “Effect of elimination of senescent cells on inflammatory factors, HPCs and cardiac function” value ([12]; after doxorubicin) is given as “reduced circulating inflammatory factors, promoted the functional recovery of HPCs and prevented cardiac dysfunction”, the “Survival and cancer metastases vs doxorubicin followed by vehicle” value ([14]; doxorubicin followed by GCV) is given as “increased survival and reduced cancer metastases” and the “Tumor growth, metastases and metastatic foci vs vehicle” value ([14]; surgical removal of palpable tumors prior to treatment) is given as “smaller tumor growth, reduced cancer metastases and fewer metastatic foci”. The “Effect of elimination of senescent cells on running activity and strength” value [13] was “nearly reversed the decline in running activity and improved the loss of strength”.

B1: Parental Anti-AGE: murine anti-AGE IgG2b antibody, heavy chain DNA SEQ ID NO: 12, kappa light chain DNA SEQ ID NO: 14 (antibody)
heavy: MDPKGSLSWRILLFLSLAFELSYGQVQLLQPGAELVKPGASVKLACKASGYLFTTYWMHWLKQRPGQGLEWIGEISPTNGRAYYNARFKSEATLTVDKSSNTAYMQLSSLTSEASAVYYCARAYGNYEFAYWGQGTLVTVSVAKTTPPSVYPLAPGCGDTTGSSVTLGCLVKGYFPESVTVTWNSGSLSSSVHTFPALLQSGLYTMSSSVTVPSSTWPSQTVTCSVAHPASSTTVDKKLEPSGPISTINPCPPCKECHKCPAPNLEGGPSVFIFPPNIKDVLMISLTPKVTCVVVDVSEDDPDVQISWFVNNVEVHTAQTQTHREDYNSTIRVVSTLPIQHQDWMSGKEFKCKVNNKDLPSPIERTISKIKGLVRAPQVYILPPPAEQLSRKDVSLTCLVVGFNPGDISVEWTSNGHTEENYKDTAPVLDSDGSYFIYSKLNMKTSKWEKTDSFSCNVRHEGLKNYYLKKTISRSPG
light: METDTLLLWVLLLWVPGSTGDVVMTQTPLSLPVSLGDQASISCRSRQSLVNSNGNTFLQWYLQKPGQSPKLLIYKVSLRFSGVPDRFSGSGSGTDFTLKISRVEAEDLGLYFCSQSTHVPPTFGGGTKLEIKRADAAPTVSIFPPSSEQLTSGGASVVCFLNNFYPKDINVKWKIDGSERQNGVLNSWTDQDSKDSTYSMSSTLTLTKDEYERHNSYTCEATHKTSTSPIVKSFNRNEC
modifications: Murine anti-AGE IgG2b heavy chain; Murine anti-AGE Kappa light chain
B1 showed an OD450 absorbance (CML-KLH; antibody 0.07 μg/mL) of 0.086, an OD450 absorbance (CML-KLH; antibody 0.21 μg/mL) of 0.066 and an OD450 absorbance (CML-KLH; antibody 0.62 μg/mL) of 0.072. For the same molecule, the OD450 absorbance (CML-KLH; antibody 1.85 μg/mL) was 0.063, the OD450 absorbance (CML-KLH; antibody 5.56 μg/mL) was 0.063 and the OD450 absorbance (CML-KLH; antibody 16.67 μg/mL) was 0.067. The OD450 absorbance (CML-KLH; antibody 50 μg/mL) was 0.092, the “Binding to CML-KLH (in words)” value (CML-KLH; direct binding ELISA) was “very weak to no binding” and the OD450 absorbance ([15]; CML Coat (CML and CML-KLH ELISA), antibody 0.07 μg/mL) was 0.096. The OD450 absorbance ([15]; CML Coat (CML and CML-KLH ELISA), antibody 0.21 μg/mL) was 0.096, the OD450 absorbance ([15]; CML Coat (CML and CML-KLH ELISA), antibody 0.62 μg/mL) was 0.085 and the OD450 absorbance ([15]; CML Coat (CML and CML-KLH ELISA), antibody 1.85 μg/mL) was 0.099. For the same molecule, the OD450 absorbance ([15]; CML Coat (CML and CML-KLH ELISA), antibody 5.56 μg/mL) was 0.115, the OD450 absorbance ([15]; CML Coat (CML and CML-KLH ELISA), antibody 16.67 μg/mL) was 0.13 and the OD450 absorbance ([15]; CML Coat (CML and CML-KLH ELISA), antibody 50 μg/mL) was 0.142. For the same molecule, the “Binding to CML (in words)” value ([15]; direct binding ELISA) was “very weak to no binding”, the OD450 absorbance ([15]; second, CML-only ELISA, antibody 0.068587 μg/mL) was 0.055 and the OD450 absorbance ([15]; second, CML-only ELISA, antibody 0.205761 μg/mL) was 0.056. The OD450 absorbance ([15]; second, CML-only ELISA, antibody 0.617284 μg/mL) was 0.103, the OD450 absorbance ([15]; second, CML-only ELISA, antibody 1.851852 μg/mL) was 0.078 and the OD450 absorbance ([15]; second, CML-only ELISA, antibody 5.555556 μg/mL) was 0.166. It also gave an OD450 absorbance ([15]; second, CML-only ELISA, antibody 16.66667 μg/mL) of 0.226 and an OD450 absorbance ([15]; second, CML-only ELISA, antibody 50 μg/mL) of 0.165.
